# Results published in publication PMC8241838.
# Biological target: trimeric fusion protein PA-sfGFP-tLM511, O15230;P07942;P11047
# Experiment: flow cytometry on cells
# Details: 0.5 mM Mn2+; for response (arbitrary units/cell): 30 nM sfGFP-tLM511, parent: est. 3.0, read off a plot
response (arbitrary units/cell),ratio to parent,Substance
1.4,4.8,"human α6β1 integrin transiently expressed on Expi293F cells, wild type (from UniProt P05556) α6:D205A"
,10.7,"human α6β1 integrin transiently expressed on Expi293F cells, wild type (from UniProt P05556) α6:E219A"
2.1,2.6,"human α6β1 integrin transiently expressed on Expi293F cells, wild type (from UniProt P05556) α6:E221A"
